The record followed here is patent publication CN114031685A.

For assay [1], the target named is SARS-CoV-2 Omicron株 S-ECD蛋白 (SARS-CoV-2 Omicron株 (B.1.1.529)).
Assay [2] deals with SARS-CoV-2 Gamma株 S-ECD蛋白 (SARS-CoV-2 Gamma株 (P.1)).
The target of assay [3] is SARS-CoV-2 Delta株 S-ECD蛋白 (SARS-CoV-2 Delta株 (B.1.617.2)).
For assay [4], the target named is SARS-CoV-2 Alpha株 S-ECD蛋白 (SARS-CoV-2 Alpha株 (B.1.1.7)).
For assay [5], the target named is SARS-CoV-2 Beta株 S-ECD蛋白 (SARS-CoV-2 Beta株 (B.1.351)).

B1: 抗SARS-CoV-2全人源单克隆抗体ZW2G10 (antibody, V domains shown)
VH: EVQLVESGGGLVQPGRSLRLSCAASGFTFDDYAMHWVRQAPGKGLEWVSGITWNSGTIGYADSVKGRFIISRDNAKNSLHLQMNSLRVEDTALYYCAKDNSDYSGYYWELENYGMDVWGQGTTVTVSS
VL: QSVLTQPPSVSGAPGQRVTISCTGSSSNIGAGYDVHWYQQLPGTAPKLLIYDNNNRPSGVPDRFSGSKSGTSASLAITGLQAEDEADYYCQSFDSSLSGVVFGGGTRLTVLR
In general, Kd refers to the concentration at which binding is half-saturated. Read a high Kd as a looser complex. With B1, the Kd in assay [1] amounted to 765 pM; in assay [2], 615 pM; in assay [3], 5450 pM; in assay [4], 166 pM; in assay [5], 518 pM.
